Reference: the supplement of paper PMC12042874
± gives the uncertainty stated by the source.

Experiment: amyloid nucleation score (Sup35N fusion, yeast selection) (log enrichment); library NNK1; higher = more nucleation; inactive = no reads after selection
Procedure, shortened: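 Peptides of 20 random codons fused to Sup35N were expressed in psi-negative yeast, induced 24 hours with 100 μM copper sulfate, then grown 7 days at 30°C on medium lacking adenine and uracil. Input and output plasmid inserts were Illumina-sequenced. Nucleation score is the DiMSum log enrichment of output over input reads, centred on the mode score of non-aggregating sequences, excluding sequences with under 100 input reads. Random libraries had three technical output replicates.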

| Substance | amyloid nucleation score |
| --- | --- |
| CMLLNWIPMRRARLTTFVGK | 0.433 ± 0.58 |
| TYARLLNCSAYSTTF | 0.048 ± 0.55 |
| KKGLLIVVVAHSERYVVDIA | -0.547 ± 0.44 |
| RMAKYNFVIISVTDDVRQKC | 2.42 ± 0.14 |
| HFCFGC | 7.377 ± 0.062 |
| VQISQETFYNWLFVPAVSVP | -0.282 ± 0.38 |
| TAESQAKQLSSNRKVGLTPS | 0.549 ± 0.27 |
| YWDGYEVDVNGVREYEGNAV | 0.305 ± 0.19 |
| MLHICCFQSVHLMDWSSH | -0.144 ± 0.67 |
| PGLMDLSVCKKCWNCCYTYD | -0.294 ± 0.65 |
| CMGLFVTSSL | 0.38 ± 1.2 |
| ETGSDEI | -0.55 ± 0.39 |
| VWSKVLGSGRWSVVRGRAWR | 1.63 ± 0.21 |
| CMYFFRVTGKINNINSLYCW | -0.824 ± 0.38 |
| IYFGSCSRLWPHHVNT | 0.436 ± 0.73 |
| NSVWHGLYCSQQRSLRTTRL | 0.116 ± 0.29 |
| RRSSSFSGIWYVSVGYNASL | -0.316 ± 0.53 |
| CDKTYPANSLCLKDFGQLEG | -0.019 ± 0.64 |
| RVVLGTGDLVSCRFIFSLEK | -1.25 ± 0.44 |
| NCRGKREMGRKSSRSLVHGW | -0.039 ± 0.49 |
| MFSNILHAHLRAWA | 0.53 ± 0.27 |
| GGQSS | 2.97 ± 0.16 |
| RVMVSGNAPSFVLNGGVSVR | 0.874 ± 0.62 |
| TIWVEKLWDIYI | inactive |
| SYFFGACCVGMCRLWNLFYS | 0.857 ± 0.52 |
| KTRNCTNFWLQRGTW | -0.28 ± 0.76 |

| Substance | amyloid nucleation score |
| --- | --- |
| WAYVAALRGYCYVGGRYLYT | -0.91 ± 1.2 |
| KWYERLCIRATLKATLGYFT | 0.055 ± 0.69 |
| PEAGGLHARYVYFVWNSAPC | 2.69 ± 0.28 |
| GRIYLVWVDSTCRRVCKTLV | 0.082 ± 0.29 |
| RLMTASTALGPYTRDLGAYY | -0.089 ± 1.2 |
| QAHLNLVSRIIIMWS | 0.067 ± 0.79 |
| VGFEGHS | -0.58 ± 0.6 |
| RFSWMQLWCECVLHY | -0.162 ± 0.3 |
| TVIYSNYAVICMGSMSQVDT | 7.762 ± 0.059 |
| SLVSGSVGCLGRYQFRESKP | 0.422 ± 0.45 |
| FMYILYYDMWYACASFR | inactive |
| SGMSGCPKCGSWGSNKWYLW | -0.004 ± 0.44 |
| DFVRMSRPHG | 0.563 ± 0.51 |
| RKRHSDNYRCEVNRS | -0.235 ± 0.52 |
| ATMSRGFKQ | 0.834 ± 0.36 |
| WLIQE | 1.24 ± 0.71 |
| CNFHVCLRLRDIWSRLYLVV | 7.157 ± 0.07 |
| TTYRCNVKYQYFMFNDIEFF | 3.54 ± 0.21 |
| VNSKFMGKY | 0.192 ± 0.39 |
| CRTYYCHTHGPAQKDHYDRG | -0.78 ± 0.89 |
| GNLVCGCVVLQIMHIERGMA | 7.481 ± 0.046 |
| FLEFVWRALEM | -1.16 ± 0.86 |
| INYRLYGVIGVAGTGPG | 0.1 ± 0.33 |
| QYRRVSILSSVLLYCPNYCQ | -1.38 ± 2.7 |
| KYRSCGNGIPLIISHLLVER | 0.317 ± 0.26 |
| SEEGMCSSMGVD | inactive |

| Substance | amyloid nucleation score |
| --- | --- |
| VLLRKVKRLNRYHMSTGGL | inactive |
| GQNLGRSRLGNVYRGPCGNC | -0.095 ± 1.1 |
| LTFNAMMMMIMLIMSAYIVS | 1.89 ± 0.46 |
| LRRLTTVAGIVIAVTSEDDT | 0.595 ± 0.73 |
| FCLNHHMVLYSIRRWNVFVY | -2.16 ± 2.7 |
| RNCWGANLFDMWIRKSFR | 0.067 ± 0.77 |
| GEQGNPIIESSREFSSVEHN | 4.33 ± 0.078 |
| MMYSIVRMLAFNAWSMR | 0.681 ± 0.49 |
| DIGRSAGRGVFVFSLLCNKW | 3.63 ± 0.18 |
| MLCFSLVYNGREGYEINLLH | -0.552 ± 0.31 |
| VYYYVNTVCWSARFHVGSGR | -0.561 ± 0.74 |
| GWNHWADTSGTLGK | 0.502 ± 0.73 |
| SGFAVLKIVMAFHLTLEHQF | 0.479 ± 0.67 |
| MPKCSTLNTKVFRPMVWFSV | 1.43 ± 0.29 |
| STFSSVTGYKPCY | 0.551 ± 1.2 |
| RLRWI | -0.057 ± 0.23 |
| FTSLYSNILHKSTCLQ | 0.288 ± 0.9 |
| SMVLKTTDAGDNLHSKCNML | -1.09 ± 0.68 |
| IYGWVHTSMRMRVGTAVLPR | 0.375 ± 0.54 |
| STFNFTRIASADMSGTSTIW | 0.505 ± 0.33 |
| QYRGDIYKISG | 1.29 ± 0.56 |
| WRQWKTLTARLTAMKA | -0.178 ± 0.33 |
| HWVDLVGESNNSISFAVVFC | 4.9 ± 0.079 |
| TFIAGAI | -0.44 ± 0.37 |
| VKTINFISQLSCWCKRPFRK | 8.673 ± 0.06 |
| LTYCDIVLSMMSLDEKSDYD | inactive |

| Substance | amyloid nucleation score |
| --- | --- |
| YAFIG | -1.07 ± 1.5 |
| FDLWLVYVRLPGSHDLDLRA | 0.61 ± 0.65 |
| CRNTLPGP | -0.398 ± 0.44 |
| LITLREVTYIFNWTFLNYLR | -0.305 ± 0.43 |
| MGDSISVFMKSRFCVCTWGG | inactive |
| FYASQRSTPHAVFLCNALKV | 0.304 ± 0.52 |
| GQFSRSCGTVHNQSVYRRCL | 1.5 ± 0.48 |
| LVMCFVMGMLNLDAGLIMRM | 0.425 ± 0.37 |
| VSIFPFLTCLVVNLMLGGPV | 4.26 ± 0.11 |
| YFIARREQFWIMLPGELALE | -0.756 ± 1.7 |
| ALILTVIDHVSAHYYVAEDV | 5.59 ± 0.081 |
| IFLGPVLFVGDTRFCHVLIN | 7.789 ± 0.049 |
| NGTFVLDVRIRSRRSERPLG | 4.09 ± 0.06 |
| KFSGWHLHGDLCRIHALEVW | 0.457 ± 0.27 |
| NDVPLLWVISASCG | 1.02 ± 0.44 |
| NSIVVTT | 0.114 ± 0.54 |
| FETYFEHYWGCVTYSSMFWS | 2.45 ± 0.14 |
| TSIMRVTILLISGGRLDVFL | -0.896 ± 1 |
| HGLAYCGRQLFGARFILRYR | 0.255 ± 0.23 |
| PERTSMGSKFTTDN | -0.382 ± 0.43 |
| YARGMCWVRVWLNVQVSAWS | 0.398 ± 0.53 |
| KYVSYQGQVDCSCKSVL | -0.182 ± 0.45 |
| VSGLAGPEM | 0.412 ± 0.56 |
| TYRNHYCKDKAL | 0.175 ± 0.75 |
| FFYSNALLWSWIVGYSCTRL | 0.537 ± 0.44 |
| RHGKASSSEWNAYRARDRGV | 0.761 ± 0.82 |

| Substance | amyloid nucleation score |
| --- | --- |
| CLTIGCWRFSF | 4.57 ± 0.093 |
| CPVWELLKDCMCHKNGLFCT | 1.28 ± 0.58 |
| LYIFGAY | -1.26 ± 0.53 |
| YRMVCVLITVPANQIYCLLH | 0.541 ± 0.69 |
| WMTTEIRRAIIEIRSVLWTS | 0.33 ± 0.55 |
| ISYGKDNESGCLLHYFHAWV | inactive |
| RQPVRAMHLDISVRWSYWSV | 2.79 ± 0.12 |
| RLSNYFNLECEQIRSYYRYM | 1.85 ± 0.11 |
| TSAVSSCDFRKRWCCSSFHW | 0.665 ± 0.24 |
| DETLEEPCT | 0.017 ± 0.43 |
| AVEVYGVISRKLINVSDRIG | 0.588 ± 0.69 |
| RMCLDGPITWFDRHK | 2.16 ± 0.15 |
| VITTNLTCFALSYAAVFISK | 3.69 ± 0.078 |
| MNRHGYHNIWWYTTSHGLYT | -1.05 ± 2.7 |
| FGASIGDGDFRVM | 0.069 ± 0.53 |
| VISMTKMLAWFTGLVYGYYG | -0.21 ± 0.35 |
| CVLFAYFNALF | 1.3 ± 0.57 |
| GWHLHFC | 0.492 ± 0.22 |
| YFMFSLCSYSNYWLRWGFV | 0.121 ± 0.22 |
| YGASI | 0.136 ± 0.47 |
| DSMSRREQG | -0.437 ± 0.73 |
| IVVSVVTASI | -0.018 ± 0.75 |
| QRLLTYPLLYVTSNVLRFYR | -0.001 ± 0.7 |
